How the values were obtained:
[1] = molecular target: T1, protein encoded by ph01207 (Homo sapiens, UniProt O60241, DEL308-362); assay: Changes in intracellular Ca2+ concentration in HA-ph01207#10-6 cell strain (CHO-K1 stably expressing ph01207); format: cell-based; settings: peptide at final concentration 1 nM
T1 construct: expressed in transfected cells; host or cells: CHO-K1 (HA-ph01207#10-6, FERM BP-10101), T8HA-attR/pCINeo
T1 sequence (O60241 with tags, fused parts or gaps DEL308-362): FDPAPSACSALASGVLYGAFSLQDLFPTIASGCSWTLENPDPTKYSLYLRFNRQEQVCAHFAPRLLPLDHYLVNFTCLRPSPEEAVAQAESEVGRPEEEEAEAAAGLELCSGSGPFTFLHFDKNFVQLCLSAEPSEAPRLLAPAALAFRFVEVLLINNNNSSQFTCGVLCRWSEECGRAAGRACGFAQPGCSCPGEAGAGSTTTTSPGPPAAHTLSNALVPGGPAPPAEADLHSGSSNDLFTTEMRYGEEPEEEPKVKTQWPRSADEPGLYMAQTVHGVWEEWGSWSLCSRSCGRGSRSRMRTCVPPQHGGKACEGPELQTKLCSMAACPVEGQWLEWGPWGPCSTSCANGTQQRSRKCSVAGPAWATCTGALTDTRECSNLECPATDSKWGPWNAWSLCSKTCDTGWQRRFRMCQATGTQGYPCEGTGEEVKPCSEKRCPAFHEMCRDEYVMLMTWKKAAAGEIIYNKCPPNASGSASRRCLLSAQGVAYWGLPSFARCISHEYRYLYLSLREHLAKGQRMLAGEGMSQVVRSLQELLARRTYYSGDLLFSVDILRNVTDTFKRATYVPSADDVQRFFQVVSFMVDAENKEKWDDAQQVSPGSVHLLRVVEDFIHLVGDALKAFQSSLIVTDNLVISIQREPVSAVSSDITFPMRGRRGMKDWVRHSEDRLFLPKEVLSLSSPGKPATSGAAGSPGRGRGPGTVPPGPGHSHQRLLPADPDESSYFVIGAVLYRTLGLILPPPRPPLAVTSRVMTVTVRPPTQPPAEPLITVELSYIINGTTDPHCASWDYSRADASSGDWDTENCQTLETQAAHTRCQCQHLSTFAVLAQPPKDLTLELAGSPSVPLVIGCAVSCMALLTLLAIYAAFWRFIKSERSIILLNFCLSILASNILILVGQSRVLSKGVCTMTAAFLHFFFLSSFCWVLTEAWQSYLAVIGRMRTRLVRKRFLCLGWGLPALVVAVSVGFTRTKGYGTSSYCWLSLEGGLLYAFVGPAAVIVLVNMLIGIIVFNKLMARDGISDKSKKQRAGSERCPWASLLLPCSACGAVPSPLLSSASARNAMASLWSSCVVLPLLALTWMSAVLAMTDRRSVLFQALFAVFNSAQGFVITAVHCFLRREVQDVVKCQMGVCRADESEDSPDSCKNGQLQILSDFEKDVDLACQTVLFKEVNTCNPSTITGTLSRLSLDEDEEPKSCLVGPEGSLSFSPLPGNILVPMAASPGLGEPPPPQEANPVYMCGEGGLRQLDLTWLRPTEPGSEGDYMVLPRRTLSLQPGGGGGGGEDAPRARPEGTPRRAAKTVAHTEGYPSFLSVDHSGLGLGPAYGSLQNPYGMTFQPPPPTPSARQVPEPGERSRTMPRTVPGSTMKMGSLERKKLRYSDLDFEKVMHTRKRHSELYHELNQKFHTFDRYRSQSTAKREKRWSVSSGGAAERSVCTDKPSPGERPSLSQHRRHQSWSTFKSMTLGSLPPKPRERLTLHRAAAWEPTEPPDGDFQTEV
Protocol: Changes in the intracellular calcium (Ca^2+) concentration induced by CCK-8S (SEQ ID NO: 14), CCK-8NS, or CCK-4 were measured using the cell strains expressing ph01207 prepared in Example 2. The cell strains prepared in Example 2 were eight strains that expressed the protein encoded by ph01207 as FLAG-tag fusion proteins and four strains that expressed the protein encoded by ph01207 as HA-tag fusion proteins. Of these, the HA-ph01207#10-6 cell strain, a strain obtained by cloning one of the cell strains that stably expressed the protein encoded by ph01207 as HA-tag fusion proteins, was used in this example. CCK-8NS was a CCK octapeptide having the same amino acid sequence as that of CCK-8S (SEQ ID NO: 14), but a region from the C terminus to the seventh tyrosine residue was not sulfated. CCK-4 was a tetrapeptide comprising residues from the C terminus to the fourth amino acid of CCK-8S (SEQ ID NO: 14).
The specific method for measuring changes in the intracellular Ca^2+ concentration in the HA-ph01207#10-6 cell strain induced by CCK-8S (SEQ ID NO: 14) and the results are described below. The HA-ph01207#10-6 cell strain was seeded on a 96-well plate (a plate with a black wall and a transparent bottom) at a cell count of 2×10^4/100 μL medium/well and cultured at 37° C. in the presence of 5% CO2. As a medium, DMEM/F12 (Gibco) containing 10% fetal calf serum (Moregate) was used. On the following day, 50 μL of the medium was removed from each well, 50 μL of a loading buffer was added to each well, and the mixture was reacted at room temperature for 1.5 h, so that a fluorescent dye contained in the loading buffer should be taken up into the cell. The loading buffer was prepared by dissolving component A of the FLIPR Calcium 3 Assay Kit (Molecular Device) in a solution obtained by adding 0.1 mL of 500 mM probenecid (Sigma) to 9.9 mL of component B. After reaction, changes over time in the fluorescence intensity in each well after addition of CCK-8S (Peptide Institute, Inc.) were measured using the FLEX station (Molecular Device). Furthermore, similar measurement was performed for CCK-8NS (Peptide Institute, Inc.) and CCK-4 (Peptide Institute, Inc.). 0.52 mg of CCK-8S (SEQ ID NO: 14) was dissolved in 4.5 mL of 1% NaHCO3 (Wako) to prepare a solution having 0.1 mM concentration. 0.53 mg of CCK-8NS was dissolved in 0.50 mL of dimethyl sulfoxide (DMSO, Sigma), and then 4.50 mL of redistilled water H2O was added to prepare a solution having 0.1 mM concentration. 0.54 mg of CCK-4 was dissolved in 0.46 mL of DMSO, 4.09 mL of redistilled water was added to prepare a solution having 0.2 mM concentration. […]

CHO-K1 cell strain = assay: Changes in intracellular Ca2+ concentration in CHO-K1 host cell not transfected (negative control); format: cell-based, Chinese hamster; settings: CHO-K1 not transfected; peptide 1 nM (Example 5)
Protocol: The specific method for measuring changes in the intracellular Ca^2+ concentration in the HA-ph01207#10-6 cell strain induced by CCK-8S (SEQ ID NO: 14) and the results are described below. The HA-ph01207#10-6 cell strain was seeded on a 96-well plate (a plate with a black wall and a transparent bottom) at a cell count of 2×10^4/100 μL medium/well and cultured at 37° C. in the presence of 5% CO2. As a medium, DMEM/F12 (Gibco) containing 10% fetal calf serum (Moregate) was used. On the following day, 50 μL of the medium was removed from each well, 50 μL of a loading buffer was added to each well, and the mixture was reacted at room temperature for 1.5 h, so that a fluorescent dye contained in the loading buffer should be taken up into the cell. The loading buffer was prepared by dissolving component A of the FLIPR Calcium 3 Assay Kit (Molecular Device) in a solution obtained by adding 0.1 mL of 500 mM probenecid (Sigma) to 9.9 mL of component B. After reaction, changes over time in the fluorescence intensity in each well after addition of CCK-8S (Peptide Institute, Inc.) were measured using the FLEX station (Molecular Device). Furthermore, similar measurement was performed for CCK-8NS (Peptide Institute, Inc.) and CCK-4 (Peptide Institute, Inc.). 0.52 mg of CCK-8S (SEQ ID NO: 14) was dissolved in 4.5 mL of 1% NaHCO3 (Wako) to prepare a solution having 0.1 mM concentration. 0.53 mg of CCK-8NS was dissolved in 0.50 mL of dimethyl sulfoxide (DMSO, Sigma), and then 4.50 mL of redistilled water H2O was added to prepare a solution having 0.1 mM concentration. 0.54 mg of CCK-4 was dissolved in 0.46 mL of DMSO, 4.09 mL of redistilled water was added to prepare a solution having 0.2 mM concentration. CCK-8S (SEQ ID NO: 14), CCK-8NS, and CCK-4 were diluted in phosphate-buffered physiological saline (PBS) to prepare 5 nM solutions, and 25 μL each was added (final concentration 1 nM) to perform measurement. As a positive control for including an increase in the intracellular Ca^2+ concentration, A23187 (Calbiochem) was used at a final concentration of 10 μM. As a negative control, the CHO-K1 cell strain used to prepare the HA-ph01207#10-6 cell strain as a host was used. Since the CHO-K1 cell strain was not transfected with the ph01207-expressing vector, the ph01207 gene product was not expressed.
Changes in the intracellular calcium (Ca^2+) concentration induced by CCK-8S were measured by a method similar to the method described in Example 5 using the 7tmHR stably-expressing strain and the hk01941 stably-expressing strain prepared in Example 7. As a control, a host cell not transfected with the 7tmHR-expressing vector or the hk01941-expressing vector was also used.
Cells were seeded in a 96-well plate (a plate with a black wall and a transparent bottom) at a cell count of 3×10^4/100 μL of medium/well and cultured overnight at 37° C. in a 5% CO2 incubator. On the following day, 50 μL of the medium was removed from each well, […] of a loading buffer was added to each well, and the mixture was reacted at room temperature for 1 h, so that a fluorescent dye contained in the loading buffer was taken up into the cell. The loading buffer was prepared by a method similar to the method described in Example 5. After reaction, changes over time in the fluorescence intensity in each well after addition of CCK-8S were measured using the FLEX station (Molecular Device). CCK-8S was used at a final concentration of 10 pM to 1 μM. Furthermore, as a positive control of the assay, A23187 was used at a final concentration of 20 μM.
Cells were seeded in a 96-well plate (a plate with a black wall and a transparent bottom) at a cell count of 3×10^4/100 μL of medium/well and cultured overnight at 37° C. in a 5% CO2 incubator. […]

Substance | Change in intracellular Ca2+ concentration (fluorescence intensity) [1] | Change in intracellular Ca2+ concentration (fluorescence intensity) (CHO-K1 cell strain)
CCK-4: tetrapeptide comprising residues from the C terminus to the fourth amino acid of CCK-8S | did not increase | not increased
CCK-8 nonsulfated form [CCK-8NS] | did not increase | not increased
